In data set [1] the target is P74-26 TTP L229A variant (bacteriophage P74-26). In words: light scattering of tube assembly; filtered TTP at ~1 mg/ml, scattering at 350 nm over time; wild type at 4, 20, 25, 37 and 50 °C and a concentration series at 37 °C; variants at 20 °C.
Data set [2] has as its target P74-26 TTP Q167A variant (bacteriophage P74-26). The data set is described as follows: SEC-MALS; 100 μl at 1 mg/ml, filtered through 0.22 μm before loading; 50 mM Tris pH 8.0, 150 mM KCl, 5 mM βME, 5% glycerol; run at room temperature. On the technique in general: SEC sorts molecules by how far they enter the pores of the column.
Data set [3] addresses P74-26 tail tube protein (TTP), gp93, in tails of purified virions (bacteriophage P74-26). In words: cryo-EM structure; tails of purified P74-26 virions, segmented helical reconstruction (C3, rise 40.25 Å, twist -44.75°).
Data set [4] in a line: SEC-MALS; 100 μl at 1 mg/ml, filtered through 0.22 μm before loading; 50 mM Tris pH 8.0, 150 mM KCl, 5 mM βME, 5% glycerol; run at room temperature.
Data set [5] has as its target P74-26 tail tube protein (TTP), gp93, recombinant wild type (bacteriophage P74-26). The data set is described as follows: light scattering of tube assembly; filtered TTP at ~1 mg/ml, scattering at 350 nm over time; wild type at 4, 20, 25, 37 and 50 °C and a concentration series at 37 °C; variants at 20 °C.
Data set [6] has the same target. The data set is described as follows: SEC-MALS; 100 μl at 1 mg/ml, filtered through 0.22 μm before loading; 50 mM Tris pH 8.0, 150 mM KCl, 5 mM βME, 5% glycerol; run at room temperature.

“P74-26 TTP L229A variant (natural protein)” gave a tube formation rate relative to WT (% of the WT rate) in data set [1] of 10.

As to “P74-26 TTP Q167A variant (natural protein)”, the stoichiometry N (as a rule, a count of units in the complex or per binding partner) in data set [2] stood at 3.

Substance “P74-26 tail tube protein (TTP), gp93, in tails of purified virions (natural protein)” registered a stoichiometry N in data set [3] of 3.

With “P74-26 tail tube protein (TTP), gp93, recombinant wild type”, in data set [4], the “mass fraction of the monomer peak” value was “∼76% mass fraction”.

As to “P74-26 tail tube protein (TTP), gp93, recombinant wild type (natural protein)”, in data set [5], the fast-phase tube growth rate at 37 °C relative to the 20 °C rate (fold (× the 20 °C rate)) was 68 and the fast-phase tube growth rate at 50 °C relative to the 20 °C rate (fold (× the 20 °C rate)) came out at 3520. In addition, in data set [6], the mass fraction of the hexamer peak amounted to 6% and the stoichiometry N amounted to 6.

Values taken from paper PMC10034513.
